Assay results from patent publication US20040014138A1 (published 2004).

Molecular target: T1, bovine serum albumin (bovine, UniProt P02769 25-607)
T1 construct: Negative control coating protein in the enzyme capture assay; also called BSA
Assay: enzyme capture assay, coated wells, APC-spiked plasma, chromogenic read-out
Experimental: As negative controls, microtiter plate wells were coated with either 5 μg/ml HPC4 monoclonal antibody or 1% bovine serum albumin (BSA) in the same buffer. The plates were then blocked for 1 hour at 37° C. or overnight at 4° C. with 200 μl of blocking buffer (coating buffer containing 1% BSA). The solutions were gently removed from the plates by vacuum.
To generate a standard curve for the quantitative measurement of APC in plasma, increasing amounts of APC (from 0 to 250 ng/ml) were spiked into normal pooled plasma containing 20 mM Hepes, pH 7.5, 2 units/ml heparin, 20 mM benzamidine, and 10 mM CaCl₂. The spiked plasma (100 μl) were transferred to the plates and incubated at room temperature for 1 hour. The wells were then washed three times with wash buffer (20 mM Hepes, pH 7.5, 150 mM NaCl, 0.05% Tween-20, and 5 mM CaCl₂). The chromogenic activity of APC was determined by the addition of 100 μl of Spectrozyme PCa (1 mM) in 20 mM Hepes, pH 7.5, 150 mM NaCl, 5 mM CaCl₂. The plates were immediately placed at 37° C., and substrate hydrolysis was monitored at 405 nm over time using a Vmax microplate reader (Molecular Devices Corp, Sunnyvale, Calif.). All samples were assayed in duplicates or triplicates.

T1 sequence (P02769 25-607 limits assumed): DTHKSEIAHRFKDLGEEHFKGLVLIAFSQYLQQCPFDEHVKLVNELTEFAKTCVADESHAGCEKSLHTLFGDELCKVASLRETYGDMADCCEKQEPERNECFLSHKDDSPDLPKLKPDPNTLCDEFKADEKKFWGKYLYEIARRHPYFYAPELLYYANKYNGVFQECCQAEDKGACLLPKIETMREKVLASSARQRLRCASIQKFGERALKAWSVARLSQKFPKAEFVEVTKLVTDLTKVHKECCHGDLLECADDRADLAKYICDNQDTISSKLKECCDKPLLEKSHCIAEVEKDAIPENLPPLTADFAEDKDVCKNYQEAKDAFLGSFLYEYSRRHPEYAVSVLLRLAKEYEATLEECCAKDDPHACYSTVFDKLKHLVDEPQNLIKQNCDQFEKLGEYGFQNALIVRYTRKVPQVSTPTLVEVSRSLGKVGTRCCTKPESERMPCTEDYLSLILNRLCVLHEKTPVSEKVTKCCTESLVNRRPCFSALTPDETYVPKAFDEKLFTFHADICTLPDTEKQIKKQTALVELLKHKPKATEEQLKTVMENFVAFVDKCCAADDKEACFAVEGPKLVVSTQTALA

binding result: no binding (tested: 1% coating)
B1: human activated protein C (enzyme)
chain 1: ANSFLEELRHSSLERECIEEICDFEEAKEIFQNVDDTLAFWSKHVDGDQCLVLPLEHPCASLCCGHGTCIDGIGSFSCDCRSGWEGRFCQREVSFLNCSLDNGGCTHYCLEEVGWRRCSCAPGYKLGDDLLQCHPAVKFPCGRPWKRMEKKRSHL
chain 2: LIDGKMTRRGDSPWQVVLLDSKKKLACGAVLIHPSWVLTAAHCMDESKKLLVRLGEYDLRRWEKWELDLDIKEVFVHPNYSKSTTDNDIALLHLAQPATLSQTIVPICLPDSGLAERELNQAGQETLVTGWGYHSSREKEAKRNRTFVLNFIKIPVVPHNECSEVMSNMVSENMLCAGILGDRQDACEGDSGGPMVASFHGTWFLVGLVSWGEGCGLLHNYGVYTKVSRYLDWIHGHIRDKEAPQKSWAP
notes: the whole natural protein is named as one piece; also called APC
